B1: decoy 895/896 (dsDNA)
DNA 1: CACCAGCGTACGTGCCTCAGG
DNA 2: CCTGAGGCACGTACGCTGGTG
B2: 895/896 H6/H6 (dsDNA)
DNA 1: CACCAGCGTACGTGCCTCAGG
DNA 2: CCTGAGGCACGTACGCTGGTG
modifications: PS at 6 linkages from 3' end, both strands
B3: 895/896 H2/H2 (dsDNA)
DNA 1: CACCAGCGTACGTGCCTCAGG
DNA 2: CCTGAGGCACGTACGCTGGTG
modifications: PS at 2 linkages from 3' end, both strands
B4: 895/896 H5/H5 (dsDNA)
DNA 1: CACCAGCGTACGTGCCTCAGG
DNA 2: CCTGAGGCACGTACGCTGGTG
modifications: PS at 5 linkages from 3' end, both strands
B5: 895/896 PS/PS (dsDNA)
DNA 1: CACCAGCGTACGTGCCTCAGG
DNA 2: CCTGAGGCACGTACGCTGGTG
modifications: full PS both strands
B6: 895/896 H3/PS (dsDNA)
DNA 1: CACCAGCGTACGTGCCTCAGG
DNA 2: CCTGAGGCACGTACGCTGGTG
modifications: 895: PS at 3 linkages from 3' end; 896: full PS
B7: 895/896 PS/PO (dsDNA)
DNA 1: CACCAGCGTACGTGCCTCAGG
DNA 2: CCTGAGGCACGTACGCTGGTG
modifications: 895: full PS; 896: unmodified
B8: 895/896 H5/PO (dsDNA)
DNA 1: CACCAGCGTACGTGCCTCAGG
DNA 2: CCTGAGGCACGTACGCTGGTG
modifications: 895: PS at 5 linkages from 3' end; 896: unmodified
B9: 895/896 H3/H3 (dsDNA)
DNA 1: CACCAGCGTACGTGCCTCAGG
DNA 2: CCTGAGGCACGTACGCTGGTG
modifications: PS at 3 linkages from 3' end, both strands
B10: 895/896 H4/H4 (dsDNA)
DNA 1: CACCAGCGTACGTGCCTCAGG
DNA 2: CCTGAGGCACGTACGCTGGTG
modifications: PS at 4 linkages from 3' end, both strands
B11: decoy 909 double (dsDNA)
DNA 1: AGCGGACGTGCAGATGCACGTCCTCT
DNA 2: AGAGGACGTGCATCTGCACGTCCGCT
B12: decoy 819/820 double (dsDNA)
DNA 1: GAAATACGTGCGCTTTGTGTGTACGTGCAGGAA
DNA 2: TTCCTGCACGTACACACAAAGCGCACGTATTTC
B13: decoy 857/858 double (dsDNA)
DNA 1: GCGGACGTGCGGGAACCCACGTGTAGG
DNA 2: CCTACACGTGGGTTCCCGCACGTCCGC
B14: decoy 841/842 double (dsDNA)
DNA 1: AGCGGACGTGCAGAAGTTGCACGTCCTCT
DNA 2: AGAGGACGTGCAACTTCTGCACGTCCGCT
B15: decoy 907 double (dsDNA)
DNA 1: GAAATACGTGCGTGTGTACGTGCAGG
DNA 2: CCTGCACGTACACACGCACGTATTTC
B16: decoy 863/864 (dsDNA)
DNA 1: AGCAGACGTGCAGGAT
DNA 2: ATCCTGCACGTCTGCT
B17: decoy 865/866 (dsDNA)
DNA 1: AGCAGACGTGCAGGCA
DNA 2: TGCCTGCACGTCTGCT
B18: decoy 875/876 (dsDNA)
DNA 1: TGCAGACGTGCAGGTC
DNA 2: GACCTGCACGTCTGCA
B19: decoy 885/886 (dsDNA)
DNA 1: TACAGACGTGCAGGTC
DNA 2: GACCTGCACGTCTGTA
B20: decoy 889/890 (dsDNA)
DNA 1: TGCATACGTGCAGGTC
DNA 2: GACCTGCACGTATGCA
B21: decoy 883/884 (dsDNA)
DNA 1: AGAAGACGTGCAGGAT
DNA 2: ATCCTGCACGTCTTCT
B22: decoy 825/826 (dsDNA)
DNA 1: AGGAGACGTGCGAGAA
DNA 2: TTCTCGCACGTCTCCT
B23: decoy 881/882 (dsDNA)
DNA 1: GGCTGCAGGAGACGTGGAGAA
DNA 2: TTCTCCACGTCTCCTGCAGCC
B24: decoy 827/828 (dsDNA)
DNA 1: AGGTTACGTGCGGACA
DNA 2: TGTCCGCACGTAACCT
B25: decoy 869/870 (dsDNA)
DNA 1: AGCAGACGTGCAGGGT
DNA 2: ACCCTGCACGTCTGCT

The binders below were run against T1, HIF-1 (HIF-1alpha/HIF-1beta (ARNT) heterodimer) (UniProt Q16665;P27540 Q16665:1-826,P27540:2-789) (assay: competition; TransAM absorbance ratio vs wild-type control at 2.5; lower = better (all Table 2B lines); 1.22 in Table 5). Settings: protein: extract; tags: none (endogenous, nuclear extract).
T1 sequence (Q16665 whole entry, chain 1 of 2): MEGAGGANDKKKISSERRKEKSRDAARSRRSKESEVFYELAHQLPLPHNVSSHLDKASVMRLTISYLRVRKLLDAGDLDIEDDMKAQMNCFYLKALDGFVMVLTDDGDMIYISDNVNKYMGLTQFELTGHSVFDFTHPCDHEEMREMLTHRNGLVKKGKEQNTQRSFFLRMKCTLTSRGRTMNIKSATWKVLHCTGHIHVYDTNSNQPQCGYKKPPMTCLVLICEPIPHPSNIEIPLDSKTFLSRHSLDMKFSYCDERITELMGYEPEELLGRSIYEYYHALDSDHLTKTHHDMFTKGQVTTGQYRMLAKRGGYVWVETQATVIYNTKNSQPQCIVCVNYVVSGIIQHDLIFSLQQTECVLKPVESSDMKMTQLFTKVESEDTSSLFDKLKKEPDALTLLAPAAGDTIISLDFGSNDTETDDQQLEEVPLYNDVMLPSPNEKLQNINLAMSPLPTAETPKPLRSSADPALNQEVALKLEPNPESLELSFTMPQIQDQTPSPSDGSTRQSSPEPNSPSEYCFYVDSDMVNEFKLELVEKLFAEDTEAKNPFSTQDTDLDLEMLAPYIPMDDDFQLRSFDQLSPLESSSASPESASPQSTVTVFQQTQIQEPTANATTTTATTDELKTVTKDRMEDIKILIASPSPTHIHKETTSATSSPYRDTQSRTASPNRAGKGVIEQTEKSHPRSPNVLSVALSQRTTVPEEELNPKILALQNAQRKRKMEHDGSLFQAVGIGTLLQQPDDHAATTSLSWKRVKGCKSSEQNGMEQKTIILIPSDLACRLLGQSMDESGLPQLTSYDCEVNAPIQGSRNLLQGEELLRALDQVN
T1 sequence (P27540 2-789, chain 2 of 2): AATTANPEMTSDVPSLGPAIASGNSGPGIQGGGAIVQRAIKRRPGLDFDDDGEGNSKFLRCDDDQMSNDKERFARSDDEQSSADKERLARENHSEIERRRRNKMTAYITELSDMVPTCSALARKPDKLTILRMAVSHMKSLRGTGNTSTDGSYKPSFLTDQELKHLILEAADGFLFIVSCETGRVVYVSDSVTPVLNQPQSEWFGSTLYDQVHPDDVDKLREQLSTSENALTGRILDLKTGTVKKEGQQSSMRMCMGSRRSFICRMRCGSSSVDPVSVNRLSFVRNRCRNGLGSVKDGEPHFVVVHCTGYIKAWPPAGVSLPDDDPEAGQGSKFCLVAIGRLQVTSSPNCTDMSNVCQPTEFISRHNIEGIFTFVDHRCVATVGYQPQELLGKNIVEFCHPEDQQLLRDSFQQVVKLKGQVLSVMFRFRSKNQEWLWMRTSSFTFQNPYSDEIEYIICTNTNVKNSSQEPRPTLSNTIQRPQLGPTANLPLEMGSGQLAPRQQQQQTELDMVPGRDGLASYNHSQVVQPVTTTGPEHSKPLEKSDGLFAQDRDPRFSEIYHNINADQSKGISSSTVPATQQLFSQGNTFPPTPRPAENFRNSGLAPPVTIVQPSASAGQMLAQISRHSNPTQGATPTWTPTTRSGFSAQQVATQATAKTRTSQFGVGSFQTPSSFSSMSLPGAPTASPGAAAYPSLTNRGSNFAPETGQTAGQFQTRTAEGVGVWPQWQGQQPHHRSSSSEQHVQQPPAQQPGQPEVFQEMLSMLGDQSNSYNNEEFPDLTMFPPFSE

With B1 the binding signal was 1.13 ratio.

What follows are binders tested against T1, HIF-1 (HIF-1alpha/HIF-1beta (ARNT) …) (assay: competition; 2.5-fold molar excess). Settings: protein: extract; tags: none (endogenous, nuclear extract).

First: B2
Second: B3
The binding signal of the first is higher: 1.01 ratio for the first, 0.86 ratio for the second.

First: B4
Second: B5
The binding signal of the first is higher: 1.34 ratio for the first, 0.98 ratio for the second.

Compared with B6, B7 is lower in binding signal: 1.38 ratio for the first, 0.52 ratio for the second.

Going from B8 to B9, the binding signal rises from 1.27 ratio to 1.33 ratio.

B10 showed a binding signal of 1.42 ratio.

The binders below were run against T1, HIF-1 (HIF-1alpha/HIF-1beta (ARNT) …) (assay: competition; TransAM; two sites). Settings: protein: extract; tags: none (endogenous, nuclear extract).
Protocol: (§1) To assess the relative affinities of oligonucleotides for a HIF-1α containing complex, the HIF-1 TransAM assay (Active Motif, Catalog # 47096) was utilized. The assay was performed according to manufacturer's instructions. Briefly, a double-stranded oligonucletide containing the hypoxia response element (HRE) was immobilized on a 96-well plate. A nuclear extract containing HIF-1α complexes was incubated and allowed to bind to the immobilized oligonucleotide. The unbound material was washed away and the bound HIF-1α detected using an antibody that specificially recognizes HIF-1α. The anti-HIF-1α antibody was detected by a secondary antibody labeled with horseradish peroxidase (HRP), and the amount of HRP in each well was measured using a calorimetric substrate reaction and read using a microplate spectrophotometer.
(§2) The ability of candidate decoy molecules to compete for binding of HIF-1α to the HRE element-immobilized on the plate were measured and compared to reveal relative binding affinities. Candidate decoys were added in increasing molar ratios (relative to the amount of oligo immobilized on the plate) to compete for binding to the HIF-1α containing complexes. The amounts of decoys added to the assay included 0.625, 1.25, 2.5, 5, 10 and 20 fold molar excess. A well containing a competing decoy able to bind HIF-1α with high affinity would give a lower absorbance reading as compared to a decoy with low affinity for HIF-1α. All potential decoys were then compared and ranked in order to assess their relative binding affinities.
(§3) The screen was conducted using different decoy concentrations. For each UV absorbance reading, normalization was done by calculating the ratio of absorbance readings of sample vs. wild type control. The bigger ratio represents less competition of binding with HIF-1α when compared with wild-type control. The smaller (smaller than 1.0 or close to 1.0) ratios represent better binding or better competition.

First: B11
Second: B12
The binding signal of the first is higher: 1.72 ratio for the first, 1.16 ratio for the second.

Compared with B13, B14 is lower in binding signal: 2.46 ratio for the first, 0.99 ratio for the second.

With B15 the binding signal was 0.91 ratio.

These binders were tested against T1, HIF-1 (HIF-1alpha/HIF-1beta (ARNT) …) (assay: competition; TransAM). Settings: protein: extract; tags: none (endogenous, nuclear extract).
Protocol: as §1, §2, §3

First: B16
Second: B17
The binding signal of the first is lower: 2.15 ratio for the first, 2.56 ratio for the second.

Going from B18 to B19, the binding signal rises from 2.63 ratio to 4.46 ratio.

First: B20
Second: B21
The binding signal of the first is lower: 4.14 ratio for the first, 4.37 ratio for the second.

First: B22
Second: B23
The binding signal of the first is higher: 5.1 ratio for the first, 3.62 ratio for the second.

First: B24
Second: B25
The binding signal of the first is higher: 4.48 ratio for the first, 2.28 ratio for the second.

— patent US20050215503, “HIF oligonucleotide decoy molecules” (published 2005)
